The record followed here is the nanobody polyreactivity screen of Harvey et al. (2022).

The data set is described as follows: yeast display, Sf9 membrane polyspecificity reagent, FACS + sequencing; frameworks hold sequencing errors. Put shortly: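 Polyreactivity labels are assigned by the sorting gate from which each nanobody was recovered. The gates were low and high (top ~1%), set on anti-HA fluorescence for expression and streptavidin fluorescence for reagent binding. Before sorting, galactose-induced (36–48 hours) yeast display cells were stained for 1 hour at 4 °C with 10% biotinylated, detergent-solubilized Sf9 membrane reagent.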
“QVQLVESGGGLVQAGGSLRLSCAASGFIFPGYTRGWYRQAPGKEWELVAAISRGSSTYYADSVKGRFTISRDNAKNTVYLQMNSLKPEDTSVYYCNTRVYAITLYDYWGQGTQVTVSS”: the “polyreactivity (PSR sort gate)” value is recorded as “low polyreactivity”.

As for “QVQLVESGGGLVQAGGSLRLSCAASGFIFPHYAMGGYRQAPGKERELIAAISKSGDSTYYADSVKGRFTISRDNAKNTVYLQMNSLKPEDTAVYYCARRGRSLRWKYDYWGQGTQVTVSS”, the “polyreactivity (PSR sort gate)” value is recorded as “low polyreactivity”. Under “QVQLVESGGGLVQAGGSLRLSCAASGFIFPLYAMGWYRQAPGKERELVAAITWRGDTTSYADSVKGSFTISRDNAKNTVYLQMNSLKPEDTAVYYCAAEFYDWWYYGGGEYWGQGTQVTVSS” stands “high polyreactivity”; under “QVQLVESGGGLVQAGGSLRLSCAASGFIFPRYAMGWYRPAPGTERELVAAISRSGGITRYADSVKGRFTISRDNAKNTVYLQINSLKPEDTAVYYCAAYIQGWVTAEWVRDDYWGQGTQVTVSS”, “high polyreactivity”. Under “QVQLVESGGGLVQAGGSLRLSCAASGFIFPSNAMGWYRQAPGKERELVAAISSRGTRTYYADSVKGRFTISRDNAKNTVYLQMNSLKPEDTAVYYCAKYGYWGQGTQVTVSS” stands “high polyreactivity”.

For “QVQLVESGGGLVQAGGSLRLSCAASGFIFPSNSMGWYRQAPGKEREFVAAISSRGGSTTYADSVKGRFTISRDYAKNTVYLQMNSLKPEDTAVYYCARDWYYYPQYRQRYYYWGQGTQVTVSS”, the “polyreactivity (PSR sort gate)” value was “high polyreactivity”.

Consider “QVQLVESGGGLVQAGGSLRLSCAASGFIFPSYAMGWYRQAPGKERELVAAISWTGGTYYADSEKGRFTISRDNAKNTVYFQMNSRKPEDTAVYYCAVRYKRKGSGYRTNAYDYWGQGTQVTVSS”, for which the “polyreactivity (PSR sort gate)” value is given as “high polyreactivity”. To “QVQLVESGGGLVQAGGSLRLSCAASGFIFPTNTMGWYRQAPGKEREFVARITRSGTNTYYADSVKGRFTISRDNAKNTVYLQMNSLKPEDTAVYYCARRGTSSYRRYWLDSASNMDYWGQGTQVTVSS” belongs “high polyreactivity”; to “QVQLVESGGGLVQAGGSLRLSCAASGFIFPVNAMGWYRQAPGKERELVAAITSSGGDTYYADSVKGRFTISRDNAKNTVYLQMNSLKPEDTAVYYCAAEYTQEQEDYDYWGQGTQVTVSS”, “low polyreactivity”; to “QVQLVESGGGLVQAGGSLRLSCAASGFIFPVNGMGWYRQAPGKERELVAGITRTGTSTYYADSVKGRFTISRDNAKYTVYLQMNSLKPEDTAVYYCAADLYTGRTKYWEFESWGQGTQVTVSS”, “low polyreactivity”. With “QVQLVESGGGLVQAGGSLRLSCAASGFIFPYYTMGWYGQARGKERELVAAISYSGGSTYYADSVKGRFTISRDKAKNTVYLQMNSLKPEDTAVYYCNADPPLIVYKVWFLLDYWGQGTQVTVTS”, the “polyreactivity (PSR sort gate)” value is recorded as “high polyreactivity”. Under “QVQLVESGGGLVQAGGSLRLSCAASGFIFQDNAMGWYRQAPGKERELVAAIRSTGSTNYADSVKGRFTISRDNAKNTVYLQMNSLKPEDTAVYYCNAGKYQSDTPSLVPTEYPAFYYWGQGTQVTVSS” stands “low polyreactivity”; under “QVQLVESGGGLVQAGGSLRLSCAASGFIFQDYAMGWYRQAPGKERELVAAITQSSGSTYYADSVKGRFTISRDNAKNTVYLQMNSLKPEDTAVYYCNTAYDFSRQASYDYWGQVTQVTVSS”, “low polyreactivity”. Turning to “QVQLVESGGGLVQAGGSLRLSCAASGFIFQKYAMGWYRQAPGKERELVAAISRSGGSTYYADSVKGRFTISRDNAKNTVYLQMNSLKPEDTAVYYCNAVYSTSRDYWGQGTQVTVSS”, the “polyreactivity (PSR sort gate)” value was “high polyreactivity”.

For the sequence “QVQLVESGGGLVQAGGSLRLSCAASGFIFQPYAMGWYRQAPGKERELVAAINFSGGSTYYADSVKGRFTISRDNAKNTVYLQMNSLKPEDTAVYYCARAGRYAAYSPFYYWGQGTQVTVSS”, the “polyreactivity (PSR sort gate)” value was “high polyreactivity”. Under “QVQLVESGGGLVQAGGSLRLSCAASGFIFQRYAMGWYRQAPGKERELVAAISWSGGITYYADSVKGRFTISRDNAKNTVYLQMNSLKPEDTAVYYCAAGLAVGDYYWGQGTQVTVSS” stands “high polyreactivity”; under “QVQLVESGGGLVQAGGSLRLSCAASGFIFQSYAMGWYRQAPGKERELVAAISSRGGSTYYADSVKGRFTISRDIAKNTVYLQMNSLKPEDTAVYYCAADLYGNEYDYWGQGTQVTVSS”, “low polyreactivity”.

As to “QVQLVESGGGLVQAGGSLRLSCAASGFIFQSYAMGWYRQAPGKERQLVAAISYTGGSTYYADSVKGRFTISRDNAKNTVYLQMNSLKPEDTAVYYCARSYYTNGNALKRDYWGQGTQVTVSS”, the “polyreactivity (PSR sort gate)” value was “high polyreactivity”.

In the case of “QVQLVESGGGLVQAGGSLRLSCAASGFIFQTNVMGGYRQAPGKERELVAAISSGYSTYYADSVKGRFTISRDNAKNTVYLQMNSLKPEDTAVYNCAADVLGTTTTVGGFNYWGQGTQVTVSS”, the “polyreactivity (PSR sort gate)” value is “low polyreactivity”. Under “QVQLVESGGGLVQAGGSLRLSCAASGFIFQYYAMGWYRQAPGKERELVAAISFSGGSTYYADSVKGRFTISRANAKNTVYLPMNSLKPEDTAVYYCAAEVYSGGDYSGHDYYWGQGTQVTVSS” stands “low polyreactivity”; under “QVQLVESGGGLVQAGGSLRLSCAASGFIFQYYSMGWYRQAPGKERELVATITSRGGSTYYADSVKGRFTISRDNAKNTVYLQMNSLKPEDTAFYYCNARSSSPRKYGYWGQGTQVTVSS”, “high polyreactivity”; under “QVQLVESGGGLVQAGGSLRLSCAASGFIFRAYAMGWYRQAPGKERELVAAISYSGGSTYYADSVKGRFTISRDNAKNTVYLQMNSLKPEDTAVYYCAALTIRVGSLGRDYWGQGTQVTVSS”, “low polyreactivity”. Regarding “QVQLVESGGGLVQAGGSLRLSCAASGFIFRDNAMGWYRQAPGKERELVAAISERGGRTYYADSVKGRFTISRDNAKNTVYLQMNSLKPEDTAVYYCAAEDIANFYYWGQGTQVTVSS”, the “polyreactivity (PSR sort gate)” value is on record as “high polyreactivity”. To “QVQLVESGGGLVQAGGSLRLSCAASGFIFRDYEMGWYRQAPGKERELVAAISWRGGTYYADSVKGRFTISRDNAKNTVYLQMNSLKPEDTAGYYCNATRYRLRPSGVRYKYNYWGQGTQVTVSS” belongs “low polyreactivity”; to “QVQLVESGGGLVQAGGSLRLSCAASGFIFRFNAMGWYRQAPGKERELVAAITYRGITYYADSVKGRFTISRDNAKNTVYLQMNSLKPEDTAVYYCAKRTSARGLYGVYFGRYEYWGQGTQVTVSS”, “high polyreactivity”. Under “QVQLVESGGGLVQAGGSLRLSCAASGFIFRFYAMGWYRQAPGKEREVVAVISRSGGSTYYADSVKGRFTISRDHAKNTVYLQMNSLKPEDTAVYYCAATFYWDSVRRGDYDYWGQGTQVTGSS” stands “high polyreactivity”; under “QVQLVESGGGLVQAGGSLRLSCAASGFIFRGNARGWYRQAPGKERELVAAISVRGGRTYYADSVKGRFTISRDNAKNTVYLQMNSLKPEDTAVYDCAADLYNRGRGSSQSYRTGYDYWGQGTQVTVSS”, “high polyreactivity”. To “QVQLVESGGGLVQAGGSLRLSCAASGFIFRGYAMGWYRQAPGKERELVAVISRSGTSTYYADSVKGRFTISRDNAKNTVYLQMNSLKPEDTAVYYCAKEVWPRYIRQAYLSGYESWGQGTQVTVSS” belongs “high polyreactivity”; to “QVQLVESGGGLVQAGGSLRLSCAASGFIFRHNAMGWYRPAPGTEREFVAAISISGGSTYYADSVKGRFTISRDNAKNTVYLQMNSLKPEDTAVYYCNARSLGNTYLLYDYWGQGTQVTVSS”, “low polyreactivity”. In the case of “QVQLVESGGGLVQAGGSLRLSCAASGFIFRKYAMGWYRQAPGKERELVAAITSSGGSTYYADSVKGRFTISRDNAKNTVYLQMNSLKPEDTAVYYCAARLKQSGHDYWGQGTQVTVSS”, the “polyreactivity (PSR sort gate)” value was “high polyreactivity”.
